From patent US20260184815A1 (published 2026)

Molecular target: T1, human plasma kallikrein (human, UniProt P03952 20-390; P03952 391-638)
T1 construct: also called pKal; Human pKal
Experiment: ELISA, biotinylated pKal signal over streptavidin background
Excerpt: Abbreviations used: “T/B” is the ELISA signal obtained using of the “target” (biotinylated plasma kallikrein) divided by the ELISA signal of the “background” (streptavidin); both of which were coated on microtiter plates, “nd” is not determined. The symbol “q” refers to the amber suppressible stop codon (TAG), which is translated as glutamine (Q) in strains of E. coli such as the TG1 cells that were used to express the Fab fragments.

T1 sequence (P03952 20-390, chain 1 of 2): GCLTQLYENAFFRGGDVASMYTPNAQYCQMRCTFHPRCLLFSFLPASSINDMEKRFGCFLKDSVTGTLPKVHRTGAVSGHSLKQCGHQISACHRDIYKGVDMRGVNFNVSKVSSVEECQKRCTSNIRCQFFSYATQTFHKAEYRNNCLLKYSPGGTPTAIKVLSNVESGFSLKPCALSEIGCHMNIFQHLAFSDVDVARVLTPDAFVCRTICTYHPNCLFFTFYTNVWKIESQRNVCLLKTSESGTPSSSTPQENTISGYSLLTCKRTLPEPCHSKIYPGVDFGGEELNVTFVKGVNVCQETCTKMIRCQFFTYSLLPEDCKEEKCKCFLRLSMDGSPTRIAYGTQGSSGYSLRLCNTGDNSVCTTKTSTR
T1 sequence (P03952 391-638, chain 2 of 2): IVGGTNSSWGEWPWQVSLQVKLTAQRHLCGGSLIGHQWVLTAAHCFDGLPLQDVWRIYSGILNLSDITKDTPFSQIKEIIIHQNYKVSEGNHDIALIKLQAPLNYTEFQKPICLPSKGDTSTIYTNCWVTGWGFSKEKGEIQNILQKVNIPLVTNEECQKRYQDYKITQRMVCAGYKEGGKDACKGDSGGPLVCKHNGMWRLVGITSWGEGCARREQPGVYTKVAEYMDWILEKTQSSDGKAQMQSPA

Binder	ELISA (T/B)
M41-A11 (Fab, V domains shown, HC as printed runs into CH1) VH: EVQLLESGGGLVQPGGSLRLSCAASGFTFSHYRMSWVRQAPGKGLEWVSSIYPSGGRTVYADSVKGRFTISRDNSKNTLYLQMNSLRAEDTAVYYCAKDKFEWRLLFRGIGNDAFDIWGQGTMVTVSS VL: QSVLTQPPSVSVSPGQTASITCSGDKLGDKYTSWYQQRPGQSPVLVIYQDIKRPSGIPERFSGSNSGNTATLTISGTQAMDEADYYCQAWDSPNARVFGSGTKVTVL	28 T/B
M27-E05 (Fab, V domains shown, HC as printed runs into CH1) VH: EVQLLESGGGLVQPGGSLRLSCAASGFTFSWYLMIWVRQAPGKGLEWVSYIYPSGGFTYYADSVKGRFTISRDNSKNTLYLQMNSLRAEDMAVYYCARTEGPLSWGYGMDVWGQGTTVTVSS VL: not shown	41.3 T/B
M10-F10 (Fab, V domains shown, HC as printed runs into CH1) VH: EVQLLESGGGLVQPGGSLRLSCAASGFTFSFYNMNWVRQAPGKGLEWVSSISPSGGETNYADSVKGRFTISRDNSKNTLYLQMNSLRAEDTAVYYCARGGGAYRNNWWGGFDIWGLGTMVTVSS VL: DIQMTQSPSSLSASVGDRVTITCRASQSISVYLNWYQHKPGKAPKLLIYGASNLQFGVPSRFSGSGYGTDFTLTISSLQPEDFATYHCQQTFSLFTFGGGTKVEIK	39.2 T/B
M38-F02 (Fab, V domains shown, HC as printed runs into CH1) VH: EVQLLESGGGLVQPGGSLRLSCAASGFTFSYYMMVWVRQAPGKGLEWVSYIYSSGGHTVYADSVKGRFTISRDNSKNTLYLQMNSLRAEDTAVYYCARDLFLYDFWSKGAFDIWGQGTMVTVSS VL: QSVLTQPPSVSVSPGQTASITCSGEKLGDKYVSWYQQKPGQSPSLVICEDSRRPSGIPERFSGSNSGNTATLTISGAQPMDEADYYCQAWDSSTAIFGPGTKVTVL	33.5 T/B
M29-E09 (Fab, V domains shown, HC as printed runs into CH1) VH: EVQLLESGGGLVQPGGSLRLSCAASGFTFSWYEMGWVRQAPGKGLEWVSSIYSSGGGTMYADSVKGRFTISRDNSKNTLYLQMNSLRAEDTAVYYCARNPQYSGYDRSLSDGAFDIWGQGTMVTVSS VL: QYELTQPPSVSVSPGQTATITCSGDNLGNKYNSWYQQKPGQSPLLVIYQDTKRPSAIPERFSGSNSGNTATLTISGTQAMDEADYYCQAWDGNVVFGGGTKLTVL	28.8 T/B
M8-A09 (Fab, V domains shown, HC as printed runs into CH1) VH: EVQLLESGGGLVQPGGSLRLSCAASGFTFSTYFMLWVRQAPGKGLEWVSSIYPSGGNTVYADSVKGRFTISRDNSKNTLYLQMNSLRAEDTAVYYCARAASPVRNYYYYGMDVWGQGTTVTVSS VL: QCELTQPPSESVSPGQTANITCSGDKLGNKYAYWYQQKPGQSPVLVIYQDNNRPSGIPERFSGSNSGNTATLTISGTQAIDEANYYCQAWDSRTVVFGGGTKLTVL	5.4 T/B
M73-D06 (Fab, V domains shown, HC as printed runs into CH1) VH: EVQLLESGGGLVQPGGSLRLSCAASGFTFSRYEMYWVRQAPGKGLEWVSSISSSGGPTAYADSVKGRFTISRDNSKNTLYLQMNSLRAEDTAMYYCAKGTPKWELLLRSIYIENAFDIWGQGTMVTVSS VL: QSELTQPPSASETPGQRVTISCSGSSSNIGSNTVSWFQQLPGSAPRLLIYNDHRRPSGVPDRFSGSKSGTSASLVISGLQSQDEADYYCSAWDDSLNGVVFGGGTKLTVL	4 T/B
M35-G04 (Fab, V domains shown, HC as printed runs into CH1; also called 559A-M0035-G04) VH: EVQLLESGGGLVQPGGSLRLSCAASGFTFSYYHMSWVRQAPGKGLEWVSVISPSGGSTKYADSVKGRFTISRDNSKNTLYLQMNSLRAEDTAVYYCARGGSSDYAWGSYRRPYYFDYWGQGTLVTVSS VL: DIQMTQSPATLSLSPGERATLSCRASQSVSSYLAWYQQKPGQAPRLLIYDASNRATGIPARFSGSGSGTDFTLTISSLEPEDFAVYYCQQRSNWPRGFTFGPGTKVDIK	11.1 T/B
M29-D09 (Fab, V domains shown, HC as printed runs into CH1; also called 559A-M0029-D09) VH: EVQLLESGGGLVQPGGSLRLSCAASGFTFSWYTMVWVRQAPGKGLEWVSYIYPSGGATFYADSVKGRFTISRDNSKNTLYLQMNSLRAEDTAVYYCAMGSYDYIWGFYSDHWGQGTLVTVSS VL: QSALTQPPTVSVSPGQTARITCSGNKLGDKYVAWYQQKPGQSPMLVIYQDTKRPSRVSERFSGSNSANTATLSISGTQALDEADYYCQAWDSSIVIFGGGTRLTVL	47.5 T/B

The next lines start with the values.

ELISA (T/B)	Binder
40 T/B	M145-D11 (Fab, V domains shown, HC as printed runs into CH1; also called 559A-M0145-D11) VH: EVQLLESGGGLVQPGGSLRLSCAASGFTFSHYRMSWVRQAPGKGLEWVSSIYPSGGRTVYADSVKGRFTISRDNSKNTLYLQMNSLRAEDTAVYYCAKDKFEWRLLFRGIGNDAFDIWGQGTMVTVSS VL: QSVLTQPPSVSVSPGQTASITCSGDKLGDKYTSWYQQRPGQSPVLVIYQDIKRPSGIPERFSGSNSGNTATLTISGTQAMDEADYYCQAWDSPNARVFGSGTKVTVL
29.9 T/B	M142-H08 (Fab) (Fab, V domains shown, HC as printed runs into CH1) VH: EVQLLESGGGLVQPGGSLRLSCAASGFTFSAYSMIWVRQAPGKGLEWVSYIRPSGGRTTYADSVKGRFTISRDNSKNTLYLQMNSLRAEDTAVYYCARGGLLLWFRELKSNYFDYWGQGTLVTVSS VL: DIQMTQSPSSLSAFVGDRVTITCRASQPIDNYLNWYHQKPGKAPKLLIYAASRLQSGVPSRLSGSGFGTDFTLTISSLQPEDFGNYYCQQSYTVPYTFGGGTKVEIR
11.2 T/B	M76-D01 (Fab, V domains shown, HC as printed runs into CH1 (ends APSPKS as printed)) VH: EVQLLESGGGLVQPGGSLRLSCAASGFTFSFYAMHWVRQAPGKGLEWVSGIVPSGGRTHYADSVKGRFTISRDNSKNTLYLQMNSLRAEDTAVYYCATDSSGSPNPLFDYWGQGTLVTVSS VL: DIVMTQTPPSLPVNPGEPASISCRSSQSLSDDGNTYLDWYLQRPGQSPQLLIHTLSYRASGVPDRFSGSGSGTDFTLKISRVEAEDVGVYYCMQGTHWPPTFGQGTKVEIK
2.4 T/B	M110-C12 (Fab, V domains shown, HC as printed runs into CH1) VH: EVQLLESGGGLVQPGGSLRLSCAASGFTFSYYEMDWVRQAPGKGLEWVSGISSSGGHTAYADSVKGRFTISRDNSKNTLYLQMNSLRAEDTATYYCARERRSSSRARYYYGMDVWGQGTTVTVSS VL: DIQMTQSPLSLSVTPGEPASISCRSSLSLLHSNGYNYLDWYVQRPGQSPQLLMYLSSTRASGVPDRFSGSGSGTDFTLEISRVEAEDVGVYYCMQPLETPPTFGGGTKVEIK
4.5 T/B	M137-E12 (Fab, V domains shown, HC as printed runs into CH1) VH: EVQLLESGGGLVQPGGSLRLSCAASGFTFSDYRMQWVRQAPGKGLEWVSVIVPSGGNTMYADSVKGRFTISRDNSKNTLYLQMNSLRAEDTAVYYCARGGPGSSIAARRAPTGYYGMDVWGQGTTVTVSS VL: QSVLIQPPSVSGIPGQRVTISCSGNNSNFGSNTVTWYQQLPGTAPKLLIYSDSRRPSGVPDRFSGSRSDTSASLAISGLQSEDEAEYHCAAWDDSLNGVFGGGTKLTVL
49.6 T/B	M146-E12 (Fab, V domains shown, HC as printed runs into CH1) VH: EVQLLESGGGLVQPGGSLRLSCAASGFTFSRYIMHWVRQAPGKGLEWVSSISPSGGLTSYADSVKGRFTISRDNSKNTLYLQMNSLRAEDTAVYYCAREFENAYHYYYYGMDVWGQGTTVTVSS VL: DIQMTQSPSSLSASVGDRVTITCRASGDIGNALGWYQQKPGKAPRLLISDASTLQSGVPLRFSGSGSGTEFTLTISSLQPEDFATYYCLQGYNYPRTFGQGTKLEIR
6.2 T/B	M145-D01 (Fab, V domains shown, HC as printed runs into CH1) VH: EVQLLESGGGLVQPGGSLRLSCAASGFTFSYYHMSWVRQAPGKGLEWVSVISPSGGSTKYADSVKGRFTISRDNSKNTLYLQMNSLRAEDTAVYYCARGGSSDYAWGSYRRPYYFDYWGQGTLVTVSS VL: DIQMTQSPATLSLSPGERATLSCRASQSVSSYLAWYQQKPGQAPRLLIYDASNRATGIPARFSGSGSGTDFTLTISSLEPEDFAVYYCQQRSNWPRGFTFGPGTKVDIK
